Biological target: endogenously expressed Gαi (human (endogenous in HEK293)) (UniProt P63096)
Test: linear dichroism

Sequence of UniProt P63096 (P63096 whole entry): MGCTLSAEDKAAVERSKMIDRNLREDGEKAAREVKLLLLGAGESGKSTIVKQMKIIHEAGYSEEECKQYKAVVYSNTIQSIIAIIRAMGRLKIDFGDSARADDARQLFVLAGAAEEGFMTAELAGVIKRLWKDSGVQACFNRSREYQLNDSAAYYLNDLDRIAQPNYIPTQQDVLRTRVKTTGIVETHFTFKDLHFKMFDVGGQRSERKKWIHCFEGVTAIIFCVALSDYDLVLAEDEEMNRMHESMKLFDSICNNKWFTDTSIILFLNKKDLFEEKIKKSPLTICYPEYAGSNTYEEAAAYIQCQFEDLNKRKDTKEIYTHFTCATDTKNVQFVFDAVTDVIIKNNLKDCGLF

Substance | percent of the FLIP molecules bound [%]
KB1753-cpmTurq2-HRas | 15
KB1753-eGFP-HRas | 15
